Paper doi:10.1101/2020.08.02.233536 (bioRxiv, 2020)

Molecular target: His-tagged SARS-CoV-2 RBD protein (binding studies) (SARS-CoV-2, UniProt P0DTC2)
Experiment: BLI
Details: both partners purified

B1:  (antibody, V domains shown)
VH: QVQLVQSGAEVKKPGASVKVSCKASGYTFTSYYMHWVRQAPGQGLEWMGIINSSGGSTSYAQKFQGRVTMTRDTSTSTVYMELSSLRSEDTAVYYCARPPRNYYDSSGYYQRAEYFQHWGQGTLVTVSS
VL: DIQLTQSPSSLSASVGDRVTITCQASQDISNYLNWYQQRPGKAPKLLIYDASNLETGVPSRFSGSGSGTDFTFTISSLQPEDIATYYCQQYDNPPLTFGGGTKLEIK
notes: also called somatic revertant VH R100bS
  binding result: binds
